From PMC4977154, “Structural mechanism of ligand activation in human calcium-sensing receptor” (eLife, 2016) come the findings set out here.

Residue numbers refer to the chain shown, from its start. Numbers in names are those of the source.

Series [1] concerns the molecule itself. The experiment in a line: SEC; Superdex-200 size exclusion chromatography of secreted wild-type CaSR ECD; 20 mM Tris pH 8.0, 150 mM NaCl. (In general: In gel filtration, larger molecules generally elute earlier.)
Series [2] concerns the molecule itself. The experiment in a line: SDS gel under reducing and non-reducing conditions; purified CaSR ECD mutant (N386Q, S402N, N468Q) after Superdex-200, with (+DTT) and without (-DTT) reducing agent.
Series [3] deals with the molecule itself. Put plainly: crystal structure; form I crystal, space group F222, one molecule per asymmetric unit, homodimer with a crystallographic symmetry-related molecule; 1.5 M Li2SO4, 100 mM Tris pH 8.5, 2 mM CaCl2, 20°C; inactive (open-open) state.

B1: wild-type human CaSR ECD (domain or fragment, UniProt P41180 20-612, looked up)
chain: YGPDQRAQKKGDIILGGLFPIHFGVAAKDQDLKSRPESVECIRYNFRGFRWLQAMIFAIEEINSSPALLPNLTLGYRIFDTCNTVSKALEATLSFVAQNKIDSLNLDEFCNCSEHIPSTIAVVGATGSGVSTAVANLLGLFYIPQVSYASSSRLLSNKNQFKSFLRTIPNDEHQATAMADIIEYFRWNWVGTIAADDDYGRPGIEKFREEAEERDICIDFSELISQYSDEEEIQHVVEVIQNSTAKVIVVFSSGPDLEPLIKEIVRRNITGKIWLASEAWASSSLIAMPQYFHVVGGTIGFALKAGQIPGFREFLKKVHPRKSVHNGFAKEFWEETFNCHLQEGAKGPLPVDTFLRGHEESGDRFSNSSTAFRPLCTGDENISSVETPYIDYTHLRISYNVYLAVYSIAHALQDIYTCLPGRGLFTNGSCADIKKVEAWQVLKHLRHLNFTNNMGEQVTFDECGDLVGNYSIINWHLSPEDGSIVFKEVGYYNVYAKKGERLFINEEKILWSGFSREVPFSNCSRDCLAGTRKGIIEGEPTCCFECVECPDGEYSDETDASACNKCPDDFWSNENHTSCIAKEIEFLSWTEPF
modifications: heavily glycosylated
notes: signal peptide in the construct; human calcium-sensing receptor (CaSR), extracellular domain, residues 1-612; The C-terminal Flag tag is told for 'each construct' in the paragraph on the mutants; the wild type was also purified on anti-Flag M2 and held by anti-Flag M2 in the scintillation proximity assay with L-Trp (not a protein-protein experiment); also called wt-CaSR ECD; extracellular domain …
As to B1, in series [1], the binding result is “binds”.

B2: human CaSR ECD mutant carrying three glycosylation-site mutations (N386Q, S402N and N468Q) (domain or fragment, UniProt P41180 20-612, looked up)
chain: B1 chain with N367Q, S383N, N449Q
modifications: N-acetyl-glucosamine seen at Asn90, Asn287, Asn488, Asn541 of one protomer and Asn541 of the other
notes: signal peptide in the construct; human calcium-sensing receptor (CaSR), extracellular domain, residues 1-612; modelled residues 20-119, 135-359, 393-598 in one protomer and 22-122, 136-360, 392-602 in the other; Disulfide-tethered homodimer; cloned into the pFBDM vector; also called calcium-sensing receptor extracellular domain; form II crystal protein; source: sf9 insect cells infected with …
On to B2, for which, in series [2], the binding result is listed as “binds”.

B3: human CaSR ECD mutant carrying two glycosylation-site mutations (N386Q, S402N), partially deglycosylated with Endo H (domain or fragment, UniProt P41180 20-612, looked up)
chain: B1 chain with N367Q, S383N
modifications: partially deglycosylated with Endo H; N-acetyl-glucosamine seen at Asn261, Asn287, Asn446, Asn468, Asn488, Asn541, Asn594; inter-subunit disulfide bond formed by C129
notes: signal peptide in the construct; human calcium-sensing receptor (CaSR), extracellular domain, residues 1-612; modelled residues 21-130 and 136-603; Disulfide-linked homodimer; cloned into the pFBDM vector; also called calcium-sensing receptor extracellular domain; form I crystal protein; source: sf9 insect cells infected with baculovirus, with kifunensine, secreted
On to B3, for which the binding result in series [3] is reported as “binds”.
